Experimental data taken from the nanobody polyreactivity screen of Harvey et al. (2022).

test: yeast display, Sf9 membrane polyspecificity reagent, FACS + sequencing; frameworks hold sequencing errors
Method in brief: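 In a synthetic yeast display library (Saccharomyces cerevisiae BJ5465), nanobody expression was induced with galactose for 36–48 hours. FACS gates were set low and high (top ~1%) using anti-HA fluorescence for expression and streptavidin fluorescence for binding of the Sf9 membrane reagent. Each polyreactivity label is drawn from the gate of origin.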

| Sequence | polyreactivity (PSR sort gate) |
| --- | --- |
| QVQLVESGGGLVQAGGSLRLSCAASGSTFYLYAMGWYRQAPGKERELVAAITFRGSRTYYADSVKGRFTISRDNAKNTVYLQMNRLKPEDTAVYYCAKEKYRTREHDSWGQGTQVTVSS | low polyreactivity |
| HVQLVESGGGLVQAGGSLRLSCAASGIIFNLYAMGWYRQAPVKERELFAAISWSGGSTYYADSVKGRFTISRDNAKNTVYLKMNSLKPEDTAVYYCAAQRSVFKSFRTTYVRYDYWGQGTQVTVSS | high polyreactivity |
| QVQLVESAGGLVQAGGSLRLSCDASGRTFPYNAMGWYRQAHGKERELVAGITGGGSTYYADSVKGRFTISRDNAKNNVYLQMNSLKPEDTAVYYCAADRYFLYATYPDVEFNYWGQGTQVTVSS | high polyreactivity |
| QVQLVESGGGLVQARGRLRLSFAASGSIFSTNAMGWYRQATGKERELVAAISSSDGITYYADSVKGRFTISRDNAMNTVYLQMNSLKPEDTAVYYCAAEYAYGIEESSAYNIYFYWGQGTQVTVSS | high polyreactivity |
| QVQLVESGGGLVQAGGSLRLSCAASGIIFTYYAMGWYTQAPGKERELVAAISSRGDSTYYADSVKGRFTISRDNAKNTVYLQMNSLKPEDTAVYYCNRYLSRPLRAMYYWGLGTQVTVSS | high polyreactivity |
| QVQLVESGGGLVQAGGSLRLSCAASGRIFRANTMGWYRQAPGKERELVAVITASGGSTYYADSVKGRFTISRDNAKNTVYLQMNSLKPEDTAVYYCNVRWSPAGTGLLDYWGQGTQVTVSS | high polyreactivity |
| QVQLVESGGALVQAGGSLRLSCAASGSIFGFYMGWYRQAPGKERELVAAISGSGGNTYYADSVKGRFTISRDNAKNTVYLQMNSLKPEDTSVYYCAAERWDLWLLYDYWGQGTQVTVSS | high polyreactivity |
| QVQLVESGGGLVQAGGSLRLSCAASGSIFGSYAMGWYRQAPGKARELVAAISQSGSSTYYADSVKGRFTISRDNAKNTVSLQMNSLKPEDTAVYYCAADWRHLRYRGGLQYDYWGQGTQVTVSS | high polyreactivity |
| QVQLVESGGGLVQAGGSLRLSCAASGRIFVPYTMGWYRQAPGKERELVAAISRSGGSTYYADSVKGRFTISRDNAKNTVYLQMNSLKPEDTAVYYCAARATNVYSKMDYWGQGTQVTVSS | high polyreactivity |
| QVQLVESGGGLVQAGGSLRLSCAASGRTFARYAMGWYRQAPGKERELVAAISSGGSTYYADSVKGRFTISRDNAKNTVYLQMNSLKPEDTAVYYCAAEWHYIYAYDYWGQGTQVTVSS | low polyreactivity |
| QVQLVESGGGLVQAGGSLRLSCAASGYTFLYYAMGWYRQAPGKEREFVAAISRSGGSTYYADSVKGRFTISRDNAKNTVYLQMNSLKPEDTAVYYCAKDHPSGRQYDYWGQGTQVTVSS | high polyreactivity |
| QVQLVESGGGLVQAGGSLRLSCAASGRTFPVNAMGWYRQAPGKERELVATISWSGGSTYYADSVKGRFTISRDYAKNTVYLQMNSLKPEDTAVYYCAALGRHYRYDYWGQGTLVTVSS | low polyreactivity |
| QVQLEESGGGLVQAGGSLRLSCPASGYTFESNAMGWSRQAPRKERELVAAINGGGGTYYADSVKGRFTISRDNGKNTVYLQMNSLKPEDTAVNVDIGFAYVPNYDYWGQGTQVTVSS | low polyreactivity |
| QVQLVESGGGLVQAGGSLRLSCAASGSTFYTYAMGWYRQAPGKERELVAAISWSGGSTYYADSVKGRFTISRDNAKNTVYLQMNSLKPEDTAVYYCAADRPYAGRYWKGYHSALYDYWGQGTQVTVSS | low polyreactivity |
| QVQLVESGGGLVQAGGSLRLSCAASGSTFNSYAMGWNRQAPGKERELVDRILWSGSTYYADSVKGRFTISRDNAKNTVYLQMNSLKPEDTAVYYFAAKRGYHIGDYWGQCTQVTVSS | high polyreactivity |
| QVQLVESGGGLVQAGGSLRLSCAASGSIFEGYVMGWYRPAPGKVRELVAAISWSGGSTYYADSVKGRFTISRDNAKNTVYLQMNSLKPEDTAVYYCAAYGYDRYGRTRYNSWGQGTQVTVSS | high polyreactivity |
